Experiments:
[1] = target: recombinant N2 NA A/Hong Kong/2671/2019 (N245 glycan) (influenza A virus H3N2 A/Hong Kong/2671/2019); experiment: SPR
[2] = target: neuraminidase (N2) of influenza A virus A/HongKong/4801/2014 (H3N2) (influenza A virus A/HongKong/4801/2014 (H3N2))
[3] = target: recombinant N2 NA A/Hong Kong/2671/2019 (N245 glycan) (influenza A virus H3N2 A/Hong Kong/2671/2019)
[4] = target: neuraminidase of influenza B virus B/Utah/9/2014 (Yamagata) (influenza B virus B/Utah/9/2014 (Yamagata))
[5] = target: neuraminidase (N1) of influenza A virus A/Michigan/45/2015 (H1N1) (influenza A virus A/Michigan/45/2015 (H1N1))
[6] = target: neuraminidase (N1) of influenza A virus A/Idaho/07/2018 (H1N1) (influenza A virus A/Idaho/07/2018 (H1N1))
[7] = target: neuraminidase (N1) of influenza A virus A/Hawaii/66/2019 (H1N1) (influenza A virus A/Hawaii/66/2019 (H1N1))
[8] = target: neuraminidase of influenza B virus B/Washington/02/2019 (Victoria) (influenza B virus B/Washington/02/2019 (Victoria))
[9] = target: neuraminidase (N2) of influenza A virus A/Kansas/14/2017 (H3N2) (influenza A virus A/Kansas/14/2017 (H3N2))
[10] = target: neuraminidase of influenza B virus B/Brisbane/60/2008 (Victoria) (influenza B virus B/Brisbane/60/2008 (Victoria))
[11] = target: neuraminidase (N2) of influenza A virus A/Victoria/361/2011 (H3N2) (influenza A virus A/Victoria/361/2011 (H3N2))
[12] = target: neuraminidase of influenza B virus B/Brisbane/35/2018 (Victoria) (influenza B virus B/Brisbane/35/2018 (Victoria))
[13] = target: neuraminidase (N2) of influenza A virus A/SouthAustralia/34/2019 (H3N2) (influenza A virus A/SouthAustralia/34/2019 (H3N2))
[14] = target: neuraminidase of influenza B virus B/Texas/6/2011 (Yamagata) (influenza B virus B/Texas/6/2011 (Yamagata))
[15] = target: neuraminidase (N1) of influenza A virus A/Illinois/45/2019 (H1N1) (influenza A virus A/Illinois/45/2019 (H1N1))
[16] = target: neuraminidase of influenza B virus B/Laos/0080/2016 (Victoria) (influenza B virus B/Laos/0080/2016 (Victoria))
[17] = target: neuraminidase (N2) of influenza A virus A/Tasmania/503/2020 (H3N2) (influenza A virus A/Tasmania/503/2020 (H3N2))
[18] = target: neuraminidase (N2) of influenza A virus A/Darwin/6/2021 (H3N2) (influenza A virus A/Darwin/6/2021 (H3N2))
[19] = target: neuraminidase (N1) of influenza A virus A/Puerto Rico/1934 (H1N1) (influenza A virus A/Puerto Rico/8/34 (H1N1)) (UniProt P03468)
[20] = target: neuraminidase of influenza B virus B/Phuket/3073/2013 (Yamagata) (influenza B virus B/Phuket/3073/2013 (Yamagata))
[21] = target: neuraminidase (N2) of influenza A virus A/Michigan/173/2020 (H3N2) (influenza A virus A/Michigan/173/2020 (H3N2))
[22] = target: neuraminidase (N2) of influenza A virus A/Cambodia/E0826360/2020 (H3N2) (influenza A virus A/Cambodia/E0826360/2020 (H3N2))
[23] = target: neuraminidase of influenza B virus B/Colorado/6/2017 (Victoria) (influenza B virus B/Colorado/6/2017 (Victoria))
[24] = target: neuraminidase (N1) of influenza A virus A/Victoria/2570/2019 (H1N1) (influenza A virus A/Victoria/2570/2019 (H1N1))
[25] = target: neuraminidase of influenza B virus B/Lee/1940 (Ancestral) (influenza B virus B/Lee/1940 (Ancestral)) (UniProt P03474)
UniProt P03474, sequence (P03474 whole entry): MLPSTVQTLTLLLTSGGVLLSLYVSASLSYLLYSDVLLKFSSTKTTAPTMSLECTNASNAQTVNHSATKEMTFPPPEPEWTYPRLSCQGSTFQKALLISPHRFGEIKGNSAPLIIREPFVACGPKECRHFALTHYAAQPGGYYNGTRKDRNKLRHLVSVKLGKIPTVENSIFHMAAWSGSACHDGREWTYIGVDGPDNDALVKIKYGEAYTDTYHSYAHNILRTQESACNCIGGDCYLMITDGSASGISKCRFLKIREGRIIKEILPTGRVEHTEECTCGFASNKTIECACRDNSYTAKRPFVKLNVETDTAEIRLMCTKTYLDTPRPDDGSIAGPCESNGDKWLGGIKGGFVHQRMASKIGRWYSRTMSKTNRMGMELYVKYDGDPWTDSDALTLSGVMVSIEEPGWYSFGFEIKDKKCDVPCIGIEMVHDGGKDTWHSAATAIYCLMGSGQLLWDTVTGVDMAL

| Substance | Kd [1] [nM] | In vitro neutralization IC50; virus A/HongKong/4801/2014 (H3N2); mAb as IgG [2] [µg/mL] | In vitro neutralization IC50; virus A/HongKong/2671/2019 (H3N2); mAb as IgG [3] [µg/mL] | In vitro neutralization IC50; virus B/Utah/9/2014 (Yamagata); mAb as IgG [4] [µg/mL] | In vitro neutralization IC50; virus A/Michigan/45/2015 (H1N1); mAb as IgG [5] [µg/mL] | In vitro neutralization IC50; virus A/Idaho/07/2018 (H1N1); mAb as IgG [6] [µg/mL] | In vitro neutralization IC50; virus A/Hawaii/66/2019 (H1N1); mAb as IgG [7] [µg/mL] | In vitro neutralization IC50; virus B/Washington/02/2019 (Victoria); mAb as IgG [8] [µg/mL] | In vitro neutralization IC50; virus A/Kansas/14/2017 (H3N2); mAb as IgG [9] [µg/mL] | In vitro neutralization IC50; virus B/Brisbane/60/2008 (Victoria); mAb as IgG [10] [µg/mL] | In vitro neutralization IC50; virus A/Victoria/361/2011 (H3N2); mAb as IgG [11] [µg/mL] | In vitro neutralization IC50; virus B/Brisbane/35/2018 (Victoria); mAb as IgG [12] [µg/mL] | In vitro neutralization IC50; virus A/SouthAustralia/34/2019 (H3N2); mAb as IgG [13] [µg/mL] | In vitro neutralization IC50; virus B/Texas/6/2011 (Yamagata); mAb as IgG [14] [µg/mL] | In vitro neutralization IC50; virus A/Illinois/45/2019 (H1N1); mAb as IgG [15] [µg/mL] | In vitro neutralization IC50; virus B/Laos/0080/2016 (Victoria); mAb as IgG [16] [µg/mL] | In vitro neutralization IC50; virus A/Tasmania/503/2020 (H3N2); mAb as IgG [17] [µg/mL] | In vitro neutralization IC50; virus A/Darwin/6/2021 (H3N2); mAb as IgG [18] [µg/mL] | In vitro neutralization IC50; virus A/Puerto Rico/1934 (H1N1); mAb as IgG [19] [µg/mL] | In vitro neutralization IC50; virus B/Phuket/3073/2013 (Yamagata); mAb as IgG [20] [µg/mL] | further results |
| --- | --- | --- | --- | --- | --- | --- | --- | --- | --- | --- | --- | --- | --- | --- | --- | --- | --- | --- | --- | --- | --- |
| 1G01 Fab | 375 | 0.058 | 21.5 | > 50 | 0.57 | 0.293 | 0.306 | 5.61 | 4.52 | > 50 | 0.039 | > 50 | 4.4 | > 50 | 0.673 | 13.5 | 26.1 | > 50 | 4.81 | > 50 | In vitro neutralization IC50; virus A/Michigan/173/2020 (H3N2); mAb as IgG [21]: 6.2 µg/mL; In vitro neutralization IC50; virus A/Cambodia/E0826360/2020 (H3N2); mAb as IgG [22]: 18.6 µg/mL; In vitro neutralization IC50; virus B/Colorado/6/2017 (Victoria); mAb as IgG [23]: 1.63 µg/mL; In vitro neutralization IC50; virus A/Victoria/2570/2019 (H1N1); mAb as IgG [24]: 15.1 µg/mL |
| FNI19 Fab | 15.1 | 0.122 | 0.19 | 0.391 | 0.062 | 0.043 | 0.021 | 0.063 | 0.559 | 0.152 | 0.091 | 0.02 | 1.11 | 0.229 | 0.039 | 0.029 | 1.18 | 2.79 | 0.012 | 0.222 | In vitro neutralization IC50; virus B/Lee/1940 (Ancestral); mAb as IgG [25]: 0.211 µg/mL; In vitro neutralization IC50; virus A/Michigan/173/2020 (H3N2); mAb as IgG [21]: 1.77 µg/mL; In vitro neutralization IC50; virus A/Cambodia/E0826360/2020 (H3N2); mAb as IgG [22]: 1.47 µg/mL; In vitro neutralization IC50; virus B/Colorado/6/2017 (Victoria); mAb as IgG [23]: 1.17 µg/mL; In vitro neutralization IC50; virus A/Victoria/2570/2019 (H1N1); mAb as IgG [24]: 0.071 µg/mL |
| FNI9 Fab | 16 | 0.022 | 0.073 | 0.245 | 0.151 | 0.079 | 0.039 | 0.031 | 0.284 | 1.16 | 0.082 | 0.026 | 0.76 | 0.104 | 0.243 | 0.047 | 2.01 | 1.13 | 0.028 | 0.193 | In vitro neutralization IC50; virus B/Lee/1940 (Ancestral); mAb as IgG [25]: 0.051 µg/mL; In vitro neutralization IC50; virus A/Michigan/173/2020 (H3N2); mAb as IgG [21]: 3.09 µg/mL; In vitro neutralization IC50; virus A/Cambodia/E0826360/2020 (H3N2); mAb as IgG [22]: 1.61 µg/mL; In vitro neutralization IC50; virus B/Colorado/6/2017 (Victoria); mAb as IgG [23]: 0.669 µg/mL; In vitro neutralization IC50; virus A/Victoria/2570/2019 (H1N1); mAb as IgG [24]: 0.168 µg/mL |
| FNI17 Fab | 2100 | 0.208 | 5.07 | 0.392 | 0.073 | 0.022 | 0.018 | 0.019 | 0.485 | 0.191 | 0.175 | 0.024 | 2.98 | 0.062 | 0.035 | 0.018 | 5.07 | > 50 | 0.011 | 0.117 | In vitro neutralization IC50; virus B/Lee/1940 (Ancestral); mAb as IgG [25]: 0.071 µg/mL; In vitro neutralization IC50; virus A/Michigan/173/2020 (H3N2); mAb as IgG [21]: 33.1 µg/mL; In vitro neutralization IC50; virus A/Cambodia/E0826360/2020 (H3N2); mAb as IgG [22]: 24.3 µg/mL; In vitro neutralization IC50; virus B/Colorado/6/2017 (Victoria); mAb as IgG [23]: 0.042 µg/mL; In vitro neutralization IC50; virus A/Victoria/2570/2019 (H1N1); mAb as IgG [24]: 0.036 µg/mL |

Reference: publication PMC10266979
